Laboratory results taken from publication PMC7235859, “Structural and Functional Peculiarities of α-Crystallin” (Biology, 2020).

Target: the molecule itself
Assay: negative-stain electron microscopy; 0.2 mg/mL, incubated 30 min at 37 °C in 20 mM Tris-HCl pH 7.5, 100 mM NaCl, 1 mM EDTA; 1% uranyl acetate; preparations from cortex, from nucleus and from Sigma; 12–14 nm particles used for 3D reconstruction

B1: native α-crystallin from bovine eye lens (complex)
chain 1: MDIAIQHPWFKRTLGPFYPSRLFDQFFGEGLFEYDLLPFLSSTISPYYRQSLFRTVLDSGISEVRSDRDKFVIFLDVKHFSPEDLTVKVQEDFVEIHGKHNERQDDHGYISREFHRRYRLPSNVDQSALSCSLSADGMLTFSGPKIPSGVDAGHSERAIPVSREEKPSSAPSS
chain 2: MDIAIHHPWIRRPFFPFHSPSRLFDQFFGEHLLESDLFPASTSLSPFYLRPPSFLRAPSWIDTGLSEMRLEKDRFSVNLDVKHFSPEELKVKVLGDVIEVHGKHEERQDEHGFISREFHRKYRIPADVDPLAITSSLSSDGVLTVNGPRKQASGPERTIPITREEKPAVTAAPKK
notes: αA-crystallin (HSPB4), bovine, isolated from eye lens as part of native α-crystallin; αB-crystallin (HSPB5), bovine, isolated from eye lens as part of native α-crystallin; Hetero-oligomeric mixture of αA- and αB-crystallin that was not separated; The number of subunits and the αA:αB ratio were not measured here (3:1 and about 42 monomers are cited); also called natural α-crystallin; authentic …
binding result: binds
